# Assay results from US20230406885A1, “CYCLIC PEPTIDES FOR TRAPPING INTERLEUKIN-1 BETA” (MERCK SHARP & DOHME LLC, priority 2022, published 2023).
# *1 amine or outer side, *2 acyl side, *3 side chain or, on linkers, in order; H or OH if unused. [ ]: non-standard residue; d: D form. Trp(4-Cl)(βS-Me) = C[C@@H](c1c[nH]c2cccc(Cl)c12)[C@H](N)C(=O)O; Pro(trans-4-NH2) = O=C([C@@H]1C[C@@H](N[*:3])CN1[*:1])[*:2]; Bip(4'-COOH) = N[C@@H](Cc1ccc(-c2ccc(C(=O)O)cc2)cc1)C(=O)O; Phe(4-COOH) = N[C@@H](Cc1ccc(C(=O)O)cc1)C(=O)O; Phe(4-CH2NH2) = NCc1ccc(C[C@H](N)C(=O)O)cc1; Phe(3-NH2) = Nc1cccc(C[C@H](N)C(=O)O)c1; Phe(4-NH2) = Nc1ccc(C[C@H](N)C(=O)O)cc1; hTyr = N[C@@H](CCc1ccc(O)cc1)C(=O)O; dDab = NCC[C@@H](N)C(=O)O; dNMeA = CN[C@H](C)C(=O)O; Dap = NC[C@H](N)C(=O)O
# B1: SEQ ID NO: 56 (peptide)
# peptide: cyclo([Bip(4'-COOH)]W[Phe(4-COOH)]G[Pro(trans-4-NH2)][Trp(4-Cl)(βS-Me)]N[dNMeA]G[Bip(4'-COOH)]WG[dDab][hTyr])
# SMILES: C[C@@H]1C(=O)NCC(=O)N[C@@H](Cc2ccc(-c3ccc(C(=O)O)cc3)cc2)C(=O)N[C@@H](Cc2c[nH]c3ccccc23)C(=O)NCC(=O)N[C@H](CCN)C(=O)N[C@@H](CCc2ccc(O)cc2)C(=O)N[C@@H](Cc2ccc(-c3ccc(C(=O)O)cc3)cc2)C(=O)N[C@@H](Cc2c[nH]c3ccccc23)C(=O)N[C@@H](Cc2ccc(C(=O)O)cc2)C(=O)NCC(=O)N2C[C@H](N)C[C@H]2C(=O)N[C@@H]([C@@H](C)c2c[nH]c3cccc(Cl)c23)C(=O)N[C@@H](CC(N)=O)C(=O)N1C
# B2: SEQ ID NO: 54 (peptide)
# peptide: cyclo([Bip(4'-COOH)]W[Phe(4-COOH)]G[Pro(trans-4-NH2)][Trp(4-Cl)(βS-Me)]D[dNMeA]G[Bip(4'-COOH)]WG[dDab][hTyr])
# SMILES: C[C@@H]1C(=O)NCC(=O)N[C@@H](Cc2ccc(-c3ccc(C(=O)O)cc3)cc2)C(=O)N[C@@H](Cc2c[nH]c3ccccc23)C(=O)NCC(=O)N[C@H](CCN)C(=O)N[C@@H](CCc2ccc(O)cc2)C(=O)N[C@@H](Cc2ccc(-c3ccc(C(=O)O)cc3)cc2)C(=O)N[C@@H](Cc2c[nH]c3ccccc23)C(=O)N[C@@H](Cc2ccc(C(=O)O)cc2)C(=O)NCC(=O)N2C[C@H](N)C[C@H]2C(=O)N[C@@H]([C@@H](C)c2c[nH]c3cccc(Cl)c23)C(=O)N[C@@H](CC(=O)O)C(=O)N1C
# B3: SEQ ID NO: 53 (peptide)
# peptide: cyclo([Bip(4'-COOH)]W[Phe(4-COOH)]G[Pro(trans-4-NH2)][Trp(4-Cl)(βS-Me)]D[dNMeA]G[Bip(4'-COOH)]W[Dap][dA][hTyr])
# SMILES: C[C@@H]1C(=O)NCC(=O)N[C@@H](Cc2ccc(-c3ccc(C(=O)O)cc3)cc2)C(=O)N[C@@H](Cc2c[nH]c3ccccc23)C(=O)N[C@@H](CN)C(=O)N[C@H](C)C(=O)N[C@@H](CCc2ccc(O)cc2)C(=O)N[C@@H](Cc2ccc(-c3ccc(C(=O)O)cc3)cc2)C(=O)N[C@@H](Cc2c[nH]c3ccccc23)C(=O)N[C@@H](Cc2ccc(C(=O)O)cc2)C(=O)NCC(=O)N2C[C@H](N)C[C@H]2C(=O)N[C@@H]([C@@H](C)c2c[nH]c3cccc(Cl)c23)C(=O)N[C@@H](CC(=O)O)C(=O)N1C
# B4: SEQ ID NO: 50 (peptide)
# peptide: cyclo([Bip(4'-COOH)]W[Phe(4-COOH)]G[Pro(trans-4-NH2)][Trp(4-Cl)(βS-Me)]D[dNMeA]G[Bip(4'-COOH)][Phe(3-NH2)]S[dA][hTyr])
# SMILES: C[C@@H]1C(=O)NCC(=O)N[C@@H](Cc2ccc(-c3ccc(C(=O)O)cc3)cc2)C(=O)N[C@@H](Cc2cccc(N)c2)C(=O)N[C@@H](CO)C(=O)N[C@H](C)C(=O)N[C@@H](CCc2ccc(O)cc2)C(=O)N[C@@H](Cc2ccc(-c3ccc(C(=O)O)cc3)cc2)C(=O)N[C@@H](Cc2c[nH]c3ccccc23)C(=O)N[C@@H](Cc2ccc(C(=O)O)cc2)C(=O)NCC(=O)N2C[C@H](N)C[C@H]2C(=O)N[C@@H]([C@@H](C)c2c[nH]c3cccc(Cl)c23)C(=O)N[C@@H](CC(=O)O)C(=O)N1C
# B5: SEQ ID NO: 55 (peptide)
# peptide: cyclo([Bip(4'-COOH)]W[Phe(4-COOH)]G[Pro(trans-4-NH2)][Trp(4-Cl)(βS-Me)]E[dNMeA]G[Bip(4'-COOH)]WG[dDab][hTyr])
# SMILES: C[C@@H]1C(=O)NCC(=O)N[C@@H](Cc2ccc(-c3ccc(C(=O)O)cc3)cc2)C(=O)N[C@@H](Cc2c[nH]c3ccccc23)C(=O)NCC(=O)N[C@H](CCN)C(=O)N[C@@H](CCc2ccc(O)cc2)C(=O)N[C@@H](Cc2ccc(-c3ccc(C(=O)O)cc3)cc2)C(=O)N[C@@H](Cc2c[nH]c3ccccc23)C(=O)N[C@@H](Cc2ccc(C(=O)O)cc2)C(=O)NCC(=O)N2C[C@H](N)C[C@H]2C(=O)N[C@@H]([C@@H](C)c2c[nH]c3cccc(Cl)c23)C(=O)N[C@@H](CCC(=O)O)C(=O)N1C
# B6: SEQ ID NO: 51 (peptide)
# peptide: cyclo([Bip(4'-COOH)]W[Phe(4-COOH)]G[Pro(trans-4-NH2)][Trp(4-Cl)(βS-Me)]D[dNMeA]G[Bip(4'-COOH)][Phe(4-CH2NH2)]S[dA][hTyr])
# SMILES: C[C@@H]1C(=O)NCC(=O)N[C@@H](Cc2ccc(-c3ccc(C(=O)O)cc3)cc2)C(=O)N[C@@H](Cc2ccc(CN)cc2)C(=O)N[C@@H](CO)C(=O)N[C@H](C)C(=O)N[C@@H](CCc2ccc(O)cc2)C(=O)N[C@@H](Cc2ccc(-c3ccc(C(=O)O)cc3)cc2)C(=O)N[C@@H](Cc2c[nH]c3ccccc23)C(=O)N[C@@H](Cc2ccc(C(=O)O)cc2)C(=O)NCC(=O)N2C[C@H](N)C[C@H]2C(=O)N[C@@H]([C@@H](C)c2c[nH]c3cccc(Cl)c23)C(=O)N[C@@H](CC(=O)O)C(=O)N1C
# B7: SEQ ID NO: 57 (peptide)
# peptide: cyclo([Bip(4'-COOH)]W[Phe(4-COOH)]G[Pro(trans-4-NH2)][Trp(4-Cl)(βS-Me)]Q[dNMeA]G[Bip(4'-COOH)]WG[dDab][hTyr])
# SMILES: C[C@@H]1C(=O)NCC(=O)N[C@@H](Cc2ccc(-c3ccc(C(=O)O)cc3)cc2)C(=O)N[C@@H](Cc2c[nH]c3ccccc23)C(=O)NCC(=O)N[C@H](CCN)C(=O)N[C@@H](CCc2ccc(O)cc2)C(=O)N[C@@H](Cc2ccc(-c3ccc(C(=O)O)cc3)cc2)C(=O)N[C@@H](Cc2c[nH]c3ccccc23)C(=O)N[C@@H](Cc2ccc(C(=O)O)cc2)C(=O)NCC(=O)N2C[C@H](N)C[C@H]2C(=O)N[C@@H]([C@@H](C)c2c[nH]c3cccc(Cl)c23)C(=O)N[C@@H](CCC(N)=O)C(=O)N1C
# B8: SEQ ID NO: 52 (peptide)
# peptide: cyclo([Bip(4'-COOH)]W[Phe(4-COOH)]G[Pro(trans-4-NH2)][Trp(4-Cl)(βS-Me)]D[dNMeA]G[Bip(4'-COOH)][Phe(4-NH2)]S[dA][hTyr])
# SMILES: C[C@@H]1C(=O)NCC(=O)N[C@@H](Cc2ccc(-c3ccc(C(=O)O)cc3)cc2)C(=O)N[C@@H](Cc2ccc(N)cc2)C(=O)N[C@@H](CO)C(=O)N[C@H](C)C(=O)N[C@@H](CCc2ccc(O)cc2)C(=O)N[C@@H](Cc2ccc(-c3ccc(C(=O)O)cc3)cc2)C(=O)N[C@@H](Cc2c[nH]c3ccccc23)C(=O)N[C@@H](Cc2ccc(C(=O)O)cc2)C(=O)NCC(=O)N2C[C@H](N)C[C@H]2C(=O)N[C@@H]([C@@H](C)c2c[nH]c3cccc(Cl)c23)C(=O)N[C@@H](CC(=O)O)C(=O)N1C
# Biological target: Recombinant human IL-1β (BioLegend 579404) (human, UniProt P01584 117-269)
# Assay: cell-based or functional assay
row,Binder,MRC5 IC50
1,B1,0.0207 nM
2,B2,0.0692 nM
3,B3,0.0418 nM
4,B4,0.52 nM
5,B5,0.0493 nM
6,B6,0.32 nM
7,B7,0.0873 nM
8,B8,0.454 nM
